For this assay, the target named is WT SOD1, purified from E. coli (human) (UniProt P00441). Briefly: NMR titration; 100 uM WT [U-15N]-apo-SOD1^SH in PBS pH 7.4 titrated with unlabelled CCS-D2 up to three equivalents, anaerobic, 298 K, 900 MHz.
UniProt P00441, sequence (P00441 whole entry): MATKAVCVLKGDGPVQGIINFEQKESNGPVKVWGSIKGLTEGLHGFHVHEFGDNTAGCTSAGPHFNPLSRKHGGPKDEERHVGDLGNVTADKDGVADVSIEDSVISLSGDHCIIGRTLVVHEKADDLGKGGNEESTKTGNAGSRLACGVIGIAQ

With “CCS-D2, purified from E. coli (domain or fragment)”, the percent of apo-SOD1^SH still free with 1 equivalent of CCS-D2 was 20%.
